These results are taken from PMC10115629, “Structural basis for GSDMB pore formation and its targeting by IpaH7.8” (Nature, 2023).

First the molecules themselves.
B1: Shigella flexneri IpaH7.8 without affinity tag (co-expressed with GSDMB) (enzyme)
chain: MFSVNNTHSSVSCSPSINSNSTSNEHYLRILTEWEKNSSPGEERGIAFNRLSQCFQNQEAVLNLSDLNLTSLPELPKHISALIVENNKLTSLPKLPAFLKELNADNNRLSVIPELPESLTTLSVRSNQLENLPVLPNHLTSLFVENNRLYNLPALPEKLKFLHVYYNRLTTLPDLPDKLEILCAQRNNLVTFPQFSDRNNIRQKEYYFHFNQITTLPESFSQLDSSYRINISGNPLSTRVLQSLQRLTSSPDYHGPQIYFSMSDGQQNTLHRPLADAVTAWFPENKQSDVSQIWHAFEHEEHANTFSAFLDRLSDTVSARNTSGFREQVAAWLEKLSASAELRQQSFAVAADATESCEDRVALTWNNLRKTLLVHQASEGLFDNDTGALLSLGREMFRLEILEDIARDKVRTLHFVDEIEVYLAFQTMLAEKLQLSTAVKEMRFYGVSGVTANDLRTAEAMVRSREENEFTDWFSLWGPWHAVLKRTEADRWAQAEEQKYEMLENEYSQRVADRLKASGLSGDADAEREAGAQVMRETEQQIYRQLTDEVLALRLSENGSRLHHS
notes: only the LRR domain is visible in the map; source: E. coli BL21 (DE3), co-expressed with His6-SUMO-GSDMB, complex purified (Ni-NTA, Hitrap Q, Superdex 200)
B2: GSDMB isoform 1 pore subunit (N-terminal domain after 3C protease cleavage) (domain or fragment)
chain: MFSVFEEITRIVVKEMDAGGDMIAVRSLVDADRFRCFHLVGEKRTFFGCRHYTTGLTLMDILDTDGDKWLDELDSGLQGQKAEFQILDNVDSTGELIVRLPKEITISGSFQGFHHQKIKISENRISQQYLATLENRKLKRELPFSFRSINTRENLYLVTETLETVKEETLKSDRQYKFWSQISQGHLSYKHKGQREVTIPPNRVLSYRVKQLVFPNKETMSAGLDIHFRGKTKSFPEGKLEVLFQ
notes: human gasdermin B isoform 1 (Q8TAX9-1), from the start to K239, after which the 3C site was inserted; what is left of the 3C protease site (LEVLFQ/GP) after cleavage; Pores were 24-26-fold symmetric; GSDMB-C was removed by size exclusion; also called GSDMB pore; GSDMB prepore; source: E. coli BL21 (DE3), purified; cleaved by 3C protease on liposomes, pores extracted with C12E8 and purified on …
B3: human GSDMB isoform 1 construct for cryo-EM, 3C protease site inserted after K239 (uncleaved, full length) (natural protein)
chain: MFSVFEEITRIVVKEMDAGGDMIAVRSLVDADRFRCFHLVGEKRTFFGCRHYTTGLTLMDILDTDGDKWLDELDSGLQGQKAEFQILDNVDSTGELIVRLPKEITISGSFQGFHHQKIKISENRISQQYLATLENRKLKRELPFSFRSINTRENLYLVTETLETVKEETLKSDRQYKFWSQISQGHLSYKHKGQREVTIPPNRVLSYRVKQLVFPNKETMSAGLDIHFRGKTKSFPEGKLEVLFQGPSLGSEDSRNMKEKLEDMESVLKDLTEEKRKDVLNSLAKCLGKEDIRQDLEQRVSEVLISGELHMEDPDKPLLSSLFNAAGVLVEARAKAILDFLDALLELSEEQQFVAEALEKGTLPLLKDQVKSVMEQNWDELASSPPDMDYDPEARILCALYVVVSILLELAEGPTSVSS
notes: human gasdermin B isoform 1 (Q8TAX9-1), full length, with a human rhinovirus 3C protease site (LEVLFQ/GP) inserted after residue K239; The methods say the 3C site is in 'the GSDMB construct used for cryo-EM structural determination'; source: E. coli BL21 (DE3), co-expressed with IpaH7.8, complex purified (Ni-NTA, Hitrap Q, Superdex 200); not shown: His6-SUMO, N-terminal, cleaved

Data set [1] concerns the target human GSDMB (isoform 1, Q8TAX9-1), full length (human). Description: ITC; VP-ITC, 20 °C, 25 mM Tris-HCl pH 8.0, 150 mM NaCl; IpaH7.8 (200 μM) injected into GSDMB (10 μM), or IpaH7.8 (625 μM) into hGSDMD or mGSDMD (40 μM); 25 injections; one-site binding model.
The target of data set [2] is B3. Description: cryo-EM structure; GSDMB-IpaH7.8 complex co-expressed in E. coli and co-purified, 0.5 mg/ml, 25 mM HEPES pH 7.5, 150 mM NaCl; 3.8 Å. To be noted: both partners purified.
The target in data set [3] is T1, human GSDMD, full length (human), P57764.
T1 chain: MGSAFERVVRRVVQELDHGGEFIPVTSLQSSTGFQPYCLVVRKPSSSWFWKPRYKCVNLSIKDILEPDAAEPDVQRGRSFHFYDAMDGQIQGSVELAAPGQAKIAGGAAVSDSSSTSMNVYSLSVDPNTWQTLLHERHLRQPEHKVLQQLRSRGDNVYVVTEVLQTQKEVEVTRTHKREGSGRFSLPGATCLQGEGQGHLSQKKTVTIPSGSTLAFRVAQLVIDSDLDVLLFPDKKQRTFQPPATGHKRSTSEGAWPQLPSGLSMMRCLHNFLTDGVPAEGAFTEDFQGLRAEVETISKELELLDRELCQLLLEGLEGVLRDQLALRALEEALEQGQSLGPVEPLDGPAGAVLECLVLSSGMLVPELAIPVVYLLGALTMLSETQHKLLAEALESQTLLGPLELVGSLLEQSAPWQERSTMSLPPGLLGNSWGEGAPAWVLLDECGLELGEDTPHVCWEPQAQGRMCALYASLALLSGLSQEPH
The data set can be described thus: ITC; VP-ITC, 20 °C, 25 mM Tris-HCl pH 8.0, 150 mM NaCl; IpaH7.8 (200 μM) injected into GSDMB (10 μM), or IpaH7.8 (625 μM) into hGSDMD or mGSDMD (40 μM); 25 injections; one-site binding model. To be noted: remark: other sources report otherwise.

Data set [4] concerns the molecule itself. The data set can be described thus: cryo-EM structure; GSDMB isoform 1 cleaved by 3C protease on liposomes, pores solubilised with C12E8 and purified on Superose 6; C24 symmetry, 4.96 Å (globular domain 4.48 Å).
For data set [5], the target named is B1. The data set can be described thus: cryo-EM structure; GSDMB-IpaH7.8 complex co-expressed in E. coli and co-purified, 0.5 mg/ml, 25 mM HEPES pH 7.5, 150 mM NaCl; 3.8 Å. The conditions noted are these: both partners purified.

In turn, “Shigella flexneri IpaH7.8 (wild type), C-terminal 6XHis construct (from UniProt P18014 1-565) (enzyme)” displayed a Kd in data set [1] of 0.44 µM.

For B1, in data set [2], the “stoichiometry N” value was 1. Further, the dissociation constant (Kd) in data set [3] was found to be 20.4 µM. Turning to B2, the “stoichiometry N” value in data set [4] turned out to be 24. Consider B3, for which the binding result in data set [5] is reported as “binds”.
